Molecular target: Protein A (on chromatography support) (UniProt P38507)
Experiment: Protein A column, linear pH gradient

| elution pH from Protein A column | Substance |
| --- | --- |
| 3.9 pH | IgG1 heterodimer with two IgG1 heavy chains identical but for an H435R/Y436F dipeptide modification in one CH3 domain (from UniProt P01857 1-330) (antibody) |
| 3.7 pH | IgG1 homodimer (unmodified CH3) (antibody) |

From patent US20190031713A1
